Results: article PMC6934829, “Multi-Factor Regulation of the Master Modulator LeuO for the Cyclic-(Phe-Pro) Signaling Pathway in Vibrio vulnificus” (Scientific Reports, 2019)

Assays:
[1] = target: T1, ToxR-C (C-terminal periplasmic domain of ToxR) (Vibrio vulnificus, UniProt Q9RP86); assay: isothermal titration calorimetry; format: binding
T1 construct: C-terminal His-tag (pET21a), expressed in E. coli BL21(DE3)

[2] = target: C-terminal periplasmic domain of ToxR (ToxR-C) (Vibrio vulnificus); assay: ITC; 0.2 mM ToxR-C in the cell, 10 mM cFP or linear FP in the syringe, 2 ul injections at 2 min intervals, 25 °C, 20 mM Na2HPO4 pH 7.8, 1 mM EDTA; simple binding model

Molecule	Kd [1] [µM]	Kd [2] [µM]	stoichiometry N [2]
O=C1N[C@@H](Cc2ccccc2)C(=O)N2CCC[C@@H]12 [cFP]	42		
cyclic-L-phenylalanine-L-proline (cFP) (peptide)		42	1
